Results as given in article PMC9352680, “A comprehensive thermodynamic model for RNA binding by the Saccharomyces cerevisiae Pumilio protein PUF4”.

biological target: T1, PUF4 RNA-binding domain (Saccharomyces cerevisiae, UniProt P25339 537-888); test: Mg; RNA-MaP; 20 mM Na-HEPES pH 7.4, 30 mM KOAc, 0.75 mM MgCl2, 0.1% Tween-20, 5% glycerol, 0.1 mg/mL BSA, 2 mM DTT; 25 C; 0.0125-409.6 nM protein; conditions: tags: N-His6-TEV cleaved; C-SNAP kept, Cy3B-labelled; label: tethered on chip by stalled RNA polymerase
T1 sequence: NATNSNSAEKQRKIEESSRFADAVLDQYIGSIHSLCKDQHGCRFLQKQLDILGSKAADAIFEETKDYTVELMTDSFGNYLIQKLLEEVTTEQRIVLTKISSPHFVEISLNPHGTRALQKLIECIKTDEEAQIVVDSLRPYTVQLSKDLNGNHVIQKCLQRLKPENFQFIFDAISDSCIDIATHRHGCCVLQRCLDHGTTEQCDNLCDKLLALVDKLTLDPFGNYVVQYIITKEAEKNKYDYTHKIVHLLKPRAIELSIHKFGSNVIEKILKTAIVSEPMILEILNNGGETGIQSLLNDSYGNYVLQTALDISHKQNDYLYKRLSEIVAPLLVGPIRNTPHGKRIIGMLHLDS

Compared with UCUCUUGUUGUAUAUUAGUUCUCUU (ssRNA) [Id_ii_S1_P4E.2_K4.1_C4.2_[C-2G]_H4.1_A4.1_F4.1_T4.2], UCUCUUUAUGUAUAUUACCUCUCUU (ssRNA) [Id_ii_S1_P4E.2_K4.1_C4.2_[C-2T]_[T-1A]_H4.1_A4.1_F4.1_T4.2_[G10C]_[T11C]] is 2.4-fold higher in Kd: 0.355 nM for the first, 0.854 nM for the second. The first binds more tightly here.

UCUCUUUAUGUAUAUUACUUCUCUU (ssRNA) [Id_ii_S1_P4E.2_K4.1_C4.2_[C-2T]_[T-1A]_H4.1_A4.1_F4.1_T4.2_[G10C]] and UCUCUUUAUGUAUAUUAUGUCUCUU (ssRNA) [Id_ii_S1_P4E.2_K4.1_C4.2_[C-2T]_[T-1A]_H4.1_A4.1_F4.1_T4.2_[G10T]_[T11G]] are within 1.5-fold of each other in Kd: 1.03 nM for the first, 0.98 nM for the second.

Compared with UCUCUUCUACACUAUAUCUCUCUU (ssRNA) [Id_ii_S1_P3E.4_K3.3_C3.2_H3.3_A3.1_F3.1_T3.2_[A10C]], UCUCUUGCUGUAUAUUAUAUCUCUU (ssRNA) [Id_ii_S1_P4E.2_K4.1_C4.2_[C-2G]_[T-1C]_H4.1_A4.1_F4.1_T4.2_[G10T]_[T11A]] is 760-fold lower in Kd: 1460 nM for the first, 1.92 nM for the second.

UCUCUUUCUGUAUAUUAUCUCUCUU (ssRNA) [Id_ii_S1_P4E.2_K4.1_C4.2_[C-2T]_[T-1C]_H4.1_A4.1_F4.1_T4.2_[G10T]_[T11C]] and UCUCUUUGUGUAUAUUAUGUCUCUU (ssRNA) [Id_ii_S1_P4E.2_K4.1_C4.2_[C-2T]_[T-1G]_H4.1_A4.1_F4.1_T4.2_[G10T]_[T11G]] are within 1.5-fold of each other in Kd: 0.77 nM for the first, 0.968 nM for the second.

First: UCUCUUGCUGUAUAUUAUCUCUCUU (ssRNA) [Id_ii_S1_P4E.2_K4.1_C4.2_[C-2G]_[T-1C]_H4.1_A4.1_F4.1_T4.2_[G10T]_[T11C]]
Second: UCUCUUUCUGUAUAUUAUAUCUCUU (ssRNA) [Id_ii_S1_P4E.2_K4.1_C4.2_[C-2T]_[T-1C]_H4.1_A4.1_F4.1_T4.2_[G10T]_[T11A]]
The Kd of the first is 1.5-fold higher: 1.14 nM for the first, 0.738 nM for the second. The second binds more tightly here.

Compared with UCUCUUUAUAUAAUAUCUCUU (ssRNA) [Ib_S1_P4E.1_K4.1_C4.1_H4.1_[G2A]_A4.1_[T7A]_F4.1_T4.1], UCUCUUCAACACUAUAUCUCUCUU (ssRNA) [Id_ii_S1_P3E.4_K3.3_C3.2_[T-1A]_H3.3_A3.1_F3.1_T3.2_[A10C]] is higher in Kd: 61.4 nM for the first, over 2300 nM for the second. The first binds more tightly here.

Going from UCUCUUCCACACUAUAGCUCUCUU (ssRNA) [Id_ii_S1_P3E.4_K3.3_C3.2_[T-1C]_H3.3_A3.1_F3.1_T3.2_[T9G]_[A10C]] to UCUCUUUCUGUAUAUUAACUCUCUU (ssRNA) [Id_ii_S1_P4E.2_K4.1_C4.2_[C-2T]_[T-1C]_H4.1_A4.1_F4.1_T4.2_[G10A]_[T11C]], the Kd falls from over 2300 nM to 0.887 nM. The second binds more tightly here.

Compared with UCUCUUUGUGUAUAUUAUCUCUCUU (ssRNA) [Id_ii_S1_P4E.2_K4.1_C4.2_[C-2T]_[T-1G]_H4.1_A4.1_F4.1_T4.2_[G10T]_[T11C]], UCUCUUUGCACAUUAUCUCUU (ssRNA) [Ib_S1_P4E.1_K4.1_C4.1_H4.1_[T3C]_A4.1_[T5C]_F4.1_T4.1] is 34-fold higher in Kd: 1.06 nM for the first, 36.2 nM for the second.

UCUCUUCCACACUAUAAAUCUCUU (ssRNA) [Id_ii_S1_P3E.4_K3.3_C3.2_[T-1C]_H3.3_A3.1_F3.1_T3.2_[T9A]] and UCUCUUCAACACUAUACCUCUCUU (ssRNA) [Id_ii_S1_P3E.4_K3.3_C3.2_[T-1A]_H3.3_A3.1_F3.1_T3.2_[T9C]_[A10C]] cannot be ordered by Kd: over 2300 nM for the first, over 2300 nM for the second.

First: UCUCUUGUUGUAUAUUAUUUCUCUU (ssRNA) [Id_ii_S1_P4E.2_K4.1_C4.2_[C-2G]_H4.1_A4.1_F4.1_T4.2_[G10T]]
Second: UCUCUUCCACACUAUAUUUCUCUU (ssRNA) [Id_ii_S1_P3E.4_K3.3_C3.2_[T-1C]_H3.3_A3.1_F3.1_T3.2_[A10T]]
The Kd of the first is lower: 0.762 nM for the first, over 2300 nM for the second. The first binds more tightly here.

Going from UCUCUUUCUGUAUAUUAAGUCUCUU (ssRNA) [Id_ii_S1_P4E.2_K4.1_C4.2_[C-2T]_[T-1C]_H4.1_A4.1_F4.1_T4.2_[G10A]_[T11G]] to UCUCUUUGUGUAUAUUAAUUCUCUU (ssRNA) [Id_ii_S1_P4E.2_K4.1_C4.2_[C-2T]_[T-1G]_H4.1_A4.1_F4.1_T4.2_[G10A]], the Kd falls from 2.74 nM to 1.63 nM (1.7-fold). The second binds more tightly here.

Compared with UCUCUUUUUAUACUAUCUCUU (ssRNA) [Ib_S1_P4E.1_K4.1_C4.1_H4.1_[G2T]_A4.1_[T7C]_F4.1_T4.1], UCUCUUUGUGUAUAUUAGUUCUCUU (ssRNA) [Id_ii_S1_P4E.2_K4.1_C4.2_[C-2T]_[T-1G]_H4.1_A4.1_F4.1_T4.2] is 3500-fold lower in Kd: 1060 nM for the first, 0.304 nM for the second. The second binds more tightly here.

Compared with UCUCUUGUUGUAUAUUAUCUCUCUU (ssRNA) [Id_ii_S1_P4E.2_K4.1_C4.2_[C-2G]_H4.1_A4.1_F4.1_T4.2_[G10T]_[T11C]], UCUCUUUAUGUAUAUUAAAUCUCUU (ssRNA) [Id_ii_S1_P4E.2_K4.1_C4.2_[C-2T]_[T-1A]_H4.1_A4.1_F4.1_T4.2_[G10A]_[T11A]] is 2.2-fold higher in Kd: 0.891 nM for the first, 1.94 nM for the second.

Compared with UCUCUUUAUGUAUAUUAUCUCUCUU (ssRNA) [Id_ii_S1_P4E.2_K4.1_C4.2_[C-2T]_[T-1A]_H4.1_A4.1_F4.1_T4.2_[G10T]_[T11C]], UCUCUUCUACACUAUAAUUCUCUU (ssRNA) [Id_ii_S1_P3E.4_K3.3_C3.2_H3.3_A3.1_F3.1_T3.2_[T9A]_[A10T]] is 2100-fold higher in Kd: 0.896 nM for the first, 1870 nM for the second.

Going from UCUCUUUAUAUAGUAUCUCUU (ssRNA) [Ib_S1_P4E.1_K4.1_C4.1_H4.1_[G2A]_A4.1_[T7G]_F4.1_T4.1] to UCUCUUUAUAUACUAUCUCUU (ssRNA) [Ib_S1_P4E.1_K4.1_C4.1_H4.1_[G2A]_A4.1_[T7C]_F4.1_T4.1], the Kd falls from 50.5 nM to 17.8 nM (2.8-fold). The second binds more tightly here.

UCUCUUCUACACUAUAACUCUCUU (ssRNA) [Id_ii_S1_P3E.4_K3.3_C3.2_H3.3_A3.1_F3.1_T3.2_[T9A]_[A10C]] showed a Kd of over 2300 nM.
